The results in this text go back to the nanobody polyreactivity screen of Harvey et al. (2022).

The nature of this series: yeast display, Sf9 membrane polyspecificity reagent, FACS + sequencing; frameworks hold sequencing errors. The essentials: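 Nanobodies came from a synthetic yeast display library in Saccharomyces cerevisiae BJ5465, induced with galactose for 36–48 hours and stained for 1 hour at 4 °C with 10% biotinylated, detergent-solubilized Sf9 membrane reagent. Cells were enriched on streptavidin microbeads and then FACS-sorted, with low and high (top ~1%) gates set on anti-HA fluorescence for expression and streptavidin fluorescence for reagent binding. Each polyreactivity label reflects the gate a clone came from. Genes were amplified by colony PCR, sequenced by MiSeq 2 × 250 and filtered by CDR length.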
Regarding “QVQLVESGGGLVQEGGSLCLSCAASGINFYYYTMGWYRQATGKERELVDAISGDDTHYADSVKGRFTISGDNAKKTVYLLMNSLKADHTAVYYCAAGYIYWDTVQSVYEYGYCGQGTQVTVSS”, the “polyreactivity (PSR sort gate)” value was “low polyreactivity”. As to “QVQLVESGGGLVQEGGSLLLSCAASGRTFNQYAMGWYRQAPGKERELVAGITISGGSTYYADSVKGRFTISRENAKNTVYLQMNSLIPEDTAVYYCIAVFDYYRQSKWTMDYWGQGTQVTVSS”, the “polyreactivity (PSR sort gate)” value is listed as “low polyreactivity”. The result for “QVQLVESGGGLVQEGGSLPLSCAASGSIIWVYAMGWYRQPPGKERELFAAITSGVSTYYADSVKGRFTISRDNAKITVYFQFNRLKPEDSAVYDCAVVGGFRWIRMEYWGQGTQVSVSS” reads “low polyreactivity”; that for “QVQLVESGGGLVQEGGSLRISCAASGRIFDSNAMVWYRQAPGKERELVAAISNGGTTNYADSVKGRFTISRDNAKNTVYLQMNSLKPADTAVYYCAARGRVVWYNGGSYRFYYWGQGTQVTVSS”, “high polyreactivity”; that for “QVQLVESGGGLVQEGGSLRISCAASGSIFQSNAMGRYRQAPGKERERVAAISSSGVRTYYADSVKGRFTISRDNAKNTVYLQMNSLKREDTAVYYCATGWYYAGGPTYEYYYWGQGTQVTVSS”, “low polyreactivity”. The result for “QVQLVESGGGLVQEGGSLRLICAASGGIFIYNAMGWYRQEPGKEREFVAAINISGGNTYYADSVKGRFTISRDNAKNTVYLQMNSLKPEDTAVYYCAARYASSWWIRYYYWGQGTQVSVSS” reads “high polyreactivity”; that for “QVQLVESGGGLVQEGGSLRLICAASGLIFPRYSMGWYRQAPGKERELVAAITRGGSTYYADSVKGRFTISRDNAMNTVYLQMNSLKQEDTAVSYCNAELPVHWSWYVYWGQGTQVTVSS”, “low polyreactivity”. Next, “QVQLVESGGGLVQEGGSLRLICAASGLTFFPYAMGWYRQAPGKDRELVAAITTSDGTTYYADSVKGRFTISRDNAKNTVYLQMNSLKPEDTAVYYCAAVYSPRSVWWYDYWGQGTQVTVSS”: “low polyreactivity”.

“QVQLVESGGGLVQEGGSLRLICAASGRIFAGYAMGWYSQAPGKERELVAAISQDGGSTYYADSVKGRFTISRDNAKNTVYLQMNSLKPEDTAVYYCAAEDPDSWLPWDLFDYWGQGTQVTVSS”: the “polyreactivity (PSR sort gate)” value is listed as “low polyreactivity”. Next, “QVQLVESGGGLVQEGGSLRLICAASGSTFKAYAMGWYRQAPGKERELVAAITNSDGDTYYADSVKGRFTISRDNAKNTVYLQMNSLKPEDRAVYYCNADDALRQTPDYNYWGQGTQVTVSS”: “low polyreactivity”; “QVQLVESGGGLVQEGGSLRLSCAASGFIFGYYAMGWYRQAPGKERELVAAISFSDGITYYADSVKGRFTISRDNAKNTVYLQMNSLKPEDTAVYYCATEILDYYYGSEYDYWGQGTQVTVSS”: “high polyreactivity”; “QVQLVESGGGLVQEGGSLRLSCAASGFIFHVNAMGWYRQAPGKERELVARITTSGGNTFYADSVKGRFTISRDNAKNTVYLQMNSLKPEDTAVYYCAIRYRYSVGWPVKNSAFGYWGQGTQVTVSS”: “low polyreactivity”. The result for “QVQLVESGGGLVQEGGSLRLSCAASGFIFSFYVMGWYRQAPGKERELVAAISTSGASTYYADSVKGRFTISRDNAKNTVYLQMNSLKQEDTAVYYCNVVYRYGGYIYWGQGTQVTVSS” reads “high polyreactivity”; that for “QVQLVESGGGLVQEGGSLRLSCAASGFTFYWYAMGWYRQAPGKERELVAAITRSGSSTYYADSVKGRFTISRDNAKNTVYLQMNSLKPEDTEVYYCAALPYKPYYDAYDYWGQGTQVTVSS”, “high polyreactivity”.

Turning to “QVQLVESGGGLVQEGGSLRLSCAASGIIFRVYAMGWYRQAPGKERELVATITYSGGITYYADSVKGRFTISRVNAKNTVYLQMNSLKQEDTAGYYPIGVGGDYDYWGQGTQVSVSS”, the “polyreactivity (PSR sort gate)” value is on record as “low polyreactivity”.

Turning to “QVQLVESGGGLVQEGGSLRLSCAASGITFPDYAMGWYRQAPGKERELVAAISRGVNTYYADSVKGRFTISRDNAKNTVYLQMNSLKPEDTAVYYCNRRGSSGYDYWGLGTQVTVSS”, the “polyreactivity (PSR sort gate)” value is reported as “low polyreactivity”. In the case of “QVQLVESGGGLVQEGGSLRLSCAASGITFTSYTMGWYRQAPGKERELVAAISSGGSTYYADSVKGRFTISRDNAKNTVYLQMNSLKPEDTAVYYCAAISYVFRMYYWGQGTQVTVSS”, the “polyreactivity (PSR sort gate)” value is given as “high polyreactivity”. Next, “QVQLVESGGGLVQEGGSLRLSCAASGLIFPSYARGWYRPAPGKERELVAGINTGGSTNYADSVKGRFTISRDNAKNTVSLQMNSQKPEDTAVYYCAKDNNYYWYVSPRDYWGLGTQVTVSS”: “low polyreactivity”; “QVQLVESGGGLVQEGGSLRLSCAASGLTFYYYAMGWYRPAPGKERELVAAISRSGGSTYYADSVKGRFTISRDNAKITVYLQMNSLIPEDTAVYYCASRDHAGYYKYDYWGQGTQVTVSS”: “high polyreactivity”; “QVQLVESGGGLVQEGGSLRLSCAASGNIFTTYAMGWYRQAPGKERELVAAISRSGGRTNYADSVKGRFTISRDNAKNTVYLQMNSLKPEDTAVYYCNRALKPVDSYAYGYWGQGTQVTVSS”: “high polyreactivity”. Next, “QVQLVESGGGLVQEGGSLRLSCAASGNMLGTYAMGWYILAPGIEREFVAAISSSVGSTYYADSVKGRFTISRDNAKNSVYLQMNILKPEDTAVYYCAARKYQIYEKWGYLYDYWGQGTQVTVSS”: “low polyreactivity”; “QVQLVESGGGLVQEGGSLRLSCAASGRIFRVYTMGWYRQAPGKERELVASITGRGGSTYYADSVKGRFTISRDNAKNTVYLQMNSLKPEDTAVYYCAAQTFRGFSEFDYWGQGTQVTLSS”: “high polyreactivity”. Next, “QVQLVESGGGLVQEGGSLRLSCAASGRIFYNYPMGWYRQAPGKEREFVAAISGSGGSTYYADSVKGRFTISRDIAKNTVYLQMKSLKPEDTAVYYCSTSGPQYYSRNFDYWGQGTQVTVSS”: “low polyreactivity”; “QVQLVESGGGLVQEGGSLRLSCAASGRIIPSYAMGWYRQAPGKERELVAAISYSGASTYYADSVKGRFTISRDNAKNTVYLLMNCLKPEDTAVYYCATDHDSVRVLVSSTSDYDYWGQGTQVTVSS”: “low polyreactivity”. Turning to “QVQLVESGGGLVQEGGSLRLSCAASGRISTYYTMGWYRQAPGKERELVAAISWSGTSTYYADSVKGRFTISRDNAKNTVYLQMNSLKPEDTAVYYCNARWRYPLDSVTDDYWGQGTQVTVSS”, the “polyreactivity (PSR sort gate)” value is reported as “high polyreactivity”.

With “QVQLVESGGGLVQEGGSLRLSCAASGRPFYNAMGWYRPAPGKERELVAGIRWSGASTYYADSVKGRFTISRDNAKNTVYLQMNSLKPEDTAVYYCAARRHSTRLRLTSDYWGHGTQVTVSS”, the “polyreactivity (PSR sort gate)” value is reported as “high polyreactivity”. The result for “QVQLVESGGGLVQEGGSLRLSCAASGRTFGYYAMGWYRQAPGKERELVAAITRNGGRTYYADSVKGRFTISRDNAKNTVYLQMNSLKPEDTAVYYCAKDQYKPEAFYYWGQGTQVTVSS” reads “high polyreactivity”. Next, “QVQLVESGGGLVQEGGSLRLSCAASGRTFPYTVMGWYRQAPGKERELVAGITGSGDSTFYADSVKGRFTISRDNAKNTVYIQMNSLKPEDTAVYYCAARYRTLNDGYIRIYWGQGTQVTVSS”: “low polyreactivity”; “QVQLVESGGGLVQEGGSLRLSCAASGRTFVSNAMGWYRQAPGKERELVAAIRYGGGRTYYADSVKGRFTISRDNAKNTVYLQMNSLKPEVTAVFYCAKRSVGGTGYYWGQGTQVTVSS”: “high polyreactivity”. Turning to “QVQLVESGGGLVQEGGSLRLSCAASGSIFPLYDMGWYRQAPGKERELVAGISSGGSTNYADSVKGRFTISRDNAKNTVYLQMTSLKPEDTAVYYCAATGSSRYGYWGQGTQVTVSS”, the “polyreactivity (PSR sort gate)” value is reported as “low polyreactivity”.

As to “QVQLVESGGGLVQEGGSLRLSCAASGSIFTLYFMGWYRQAPGKERELVAAITWSGGSTYYADSVKGRFTISRDNAKNTVYLQMNSLKTEVTAVYYCNADVRWDSQDYYYWGQGTQVTVSS”, the “polyreactivity (PSR sort gate)” value is recorded as “low polyreactivity”. Next, “QVQLVESGGGLVQEGGSLRLSCAASGSTFFTYAMGWYRQAPGKERELVAAISSSGGSTYYADSVKGRFTISRDNAKNTVYLQMNSLIPEDTAVDYCNAKLYLPYDPTDEYDYWGQGTQVTVSS”: “low polyreactivity”; “QVQLVESGGGLVQEGGSLRLSCAASGSTFLTYAMGWYRQAPGKERELVAGITRSGASTYYADSVKGRFTISRDNAKNTVYLQMNSLKTEDTAVYYCAATYISHFHRYYYWGQGTQVTVSS”: “high polyreactivity”; “QVQLVESGGGLVQEGGSLRLSCAASGSTFRFYAMGWYRQAPGKERELVAVISFNDGSTYYADSVTGRFTISRDNAKNTVYLQMNSLKPEDSAVYSCATDELDSWWNEYEYWGQGTQVTVSS”: “low polyreactivity”. Next, “QVQLVESGGGLVQEGGSLRLSCAASGSTFSRYAMGWYRQAPGKERELVAAISSRGGSTYYADSVKGRFTISRDNAKNNVYLQMNSLKPEDTAVYYCNALTSYQNHVYPYDYWGQGTQVTVSS”: “high polyreactivity”; “QVQLVESGGGLVQEGGSLRLSCAASGSTFWVYVMGWYRPAAGKERELVAGISSRGGNTYYADSVKGRFTISRDKAKNSVYLQMNSLKPEDTAVYYCNAPYGGDYESARDYWGQGTQVTVSS”: “low polyreactivity”. On to “QVQLVESGGGLVQEGGSLRLSCAASGSTFYPNAMGWYRQAPGKERELVAAISSSGGSTYYADSVKGRFTISRDNAKNTVYLQMNSLKPEDTAVYYCNKRWFRDYDYWGPGTQVTVSS”, for which the “polyreactivity (PSR sort gate)” value is on record as “high polyreactivity”. For “QVQLVESGGGLVQEGGSLRLSCAASGSTFYWYAMGWYRQAPGKERELVATISNTGRTYYADSVKGRFTISRDNAKNTVYLQMNSLKPEDTAVYDCAAKRSQRWRYDYWGQGTQVTVSS”, the “polyreactivity (PSR sort gate)” value is “high polyreactivity”. The result for “QVQLVESGGGLVQEGGSLRLSCAASGSTSQYNDMGWYRQAPGKERELVAAITNCGSTNYADSVKGRFTISRDNAKNTVYLQMNSLKPEDTAVYSCNADYGQERPGYGYGYWGQGTQVTVSS” reads “low polyreactivity”. The result for “QVQLVESGGGLVQEGGSLRLSCASSGITFYSNAMGWYRQAPGKERELVATITRGGSTYYADSVKGRFTISRDNAKTTVYLHMNSLKPEDTAVYYCAADYSYRGREYGYWGQGTQVTVSS” reads “low polyreactivity”; that for “QVQLVESGGGLVQGGGSLRLSCAASGIIFFNNVMGWYRLAPGKERELVAAITFSGSSTYYADSVKGRFTISRDNAKNTVYLQMNSLKTEDTAVYYCAAYRSGHGIIDYDSWGQGTQVTVSS”, “low polyreactivity”.
